The values that follow come from doi:10.1101/2024.06.16.599208, “A transcription-driven microgel network poised near the sol-gel transition”.

This data set deals with SAF-A SPRNK domain (SPRY/PNK) WT (UniProt Q00839 221-679). Briefly: EMSA; 8 mM HEPES pH 7.5, 60 mM KOAc, 16 mM MgOAc; 1 h on ice; 0.125 uM RNA, 0-8 uM protein; 7% acrylamide gel; n=3. The conditions noted are these: protein: recombinant; (nickel IMAC); label: DY681.
SAF-A SPRNK domain (SPRY/PNK) WT, sequence (Q00839 221-679): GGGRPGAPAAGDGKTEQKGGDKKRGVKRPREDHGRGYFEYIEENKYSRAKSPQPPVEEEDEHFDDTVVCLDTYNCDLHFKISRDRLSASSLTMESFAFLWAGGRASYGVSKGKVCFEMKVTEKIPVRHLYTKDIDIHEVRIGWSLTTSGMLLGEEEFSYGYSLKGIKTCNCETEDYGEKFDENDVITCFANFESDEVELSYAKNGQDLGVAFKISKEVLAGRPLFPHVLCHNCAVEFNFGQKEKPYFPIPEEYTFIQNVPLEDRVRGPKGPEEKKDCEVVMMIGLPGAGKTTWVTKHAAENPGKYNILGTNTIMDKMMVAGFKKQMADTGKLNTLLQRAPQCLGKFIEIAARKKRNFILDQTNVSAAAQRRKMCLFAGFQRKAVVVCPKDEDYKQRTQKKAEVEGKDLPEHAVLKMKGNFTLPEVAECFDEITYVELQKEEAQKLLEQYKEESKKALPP

Turning to AAAAAAAAAAAAAAAAAAAA (ssRNA) [oligoA20-DY681], the binding result is on record as “binds”.
